Molecular target: human glypican-3 (GPC3) on the cell surface (human), P51654
Assay: cell-based or functional assay

B1: CAR.hYP7 (GPC3-targeted chimeric antigen receptor with humanized YP7 scFv, CD8α hinge and TM, 4-1BB, CD3ζ) (protein)
chain: HMEVQLVESGGGLVQPGGSLRLSCAASGFTFNKNAMNWVRQAPGKGLEWVGRIRNKTNNYATYYADSVKARFTISRDDSKNSLYLQMNSLKTEDTAVYYCVAGNSFAYWGQGTLVTVSAGGGGSGGGGSGGGGSDIVMTQSPDSLAVSLGERATINCKSSQSLLYSSNQKNYLAWYQQKPGQPPKLLIYWASSRESGVPDRFSGSGSGTDFTLTISSLQAEDVAVYYCQQYYNYPLTFGQGTKLEIKTSTTTPAPRPPTPAPTIASQPLSLRPEACRPAAGGAVHTRGLDFACDIYIWAPLAGTCGVLLLSLVITKRGRKKLLYIFKQPFMRPVQTTQEEDGCSCRFPEEEEGGCELRVKFSRSADAPAYQQGQNQLYNELNLGRREEYDVLDKRRGRDPEMGGKPRRKNPQEGLYNELQKDKMAEAYSEIGMKGERRRGKGHDGLYQGLSTATKDTYDALHMQALPPR
lytic activity against Hep3B cells at E:T ratio of 5 (HCC patient-derived T cells): 30 to 70% | lytic activity against Hep3B cells at E:T ratio of 5 (HCC patient-derived T cells), average: 50% | lytic activity against Hep3B cells at E:T ratio of 5 (healthy donor-derived T cells), average: 90%
